The record followed here is paper PMC9215706 (Cell reports, 2022).

This test has as its target T1, Recombinant Ubiquitin activating enzyme E1 (human) - UBA1 (human, UniProt P22314 1-1058).
T1 sequence: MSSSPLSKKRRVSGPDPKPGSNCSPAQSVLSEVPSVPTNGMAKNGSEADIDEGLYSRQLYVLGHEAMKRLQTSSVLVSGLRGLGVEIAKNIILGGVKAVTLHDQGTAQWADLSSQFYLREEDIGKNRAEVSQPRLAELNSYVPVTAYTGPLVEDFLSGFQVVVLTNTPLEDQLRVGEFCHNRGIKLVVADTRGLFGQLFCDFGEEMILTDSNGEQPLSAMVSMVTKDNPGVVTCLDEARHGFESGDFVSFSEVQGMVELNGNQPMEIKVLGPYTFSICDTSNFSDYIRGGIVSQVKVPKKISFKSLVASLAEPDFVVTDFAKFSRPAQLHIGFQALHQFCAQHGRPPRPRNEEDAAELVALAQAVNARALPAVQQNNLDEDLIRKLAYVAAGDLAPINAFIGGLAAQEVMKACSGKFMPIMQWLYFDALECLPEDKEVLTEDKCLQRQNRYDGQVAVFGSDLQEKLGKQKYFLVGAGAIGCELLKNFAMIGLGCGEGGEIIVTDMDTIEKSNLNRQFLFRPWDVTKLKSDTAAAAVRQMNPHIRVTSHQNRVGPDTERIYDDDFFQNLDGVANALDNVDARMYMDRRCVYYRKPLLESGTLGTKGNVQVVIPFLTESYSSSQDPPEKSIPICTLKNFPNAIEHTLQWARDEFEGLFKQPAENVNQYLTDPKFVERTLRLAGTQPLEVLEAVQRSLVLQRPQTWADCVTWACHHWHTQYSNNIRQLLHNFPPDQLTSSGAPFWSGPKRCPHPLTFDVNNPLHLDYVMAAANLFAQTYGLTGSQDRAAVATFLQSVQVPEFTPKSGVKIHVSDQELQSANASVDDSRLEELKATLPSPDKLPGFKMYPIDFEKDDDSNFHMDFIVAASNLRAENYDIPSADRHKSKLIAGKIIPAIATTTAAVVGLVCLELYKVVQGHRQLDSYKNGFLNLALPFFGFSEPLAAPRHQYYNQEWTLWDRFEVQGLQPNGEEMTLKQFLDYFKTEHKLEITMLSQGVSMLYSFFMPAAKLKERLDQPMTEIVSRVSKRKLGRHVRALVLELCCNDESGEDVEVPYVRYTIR
The experiment in a line: in vitro oxidation and non-reducing immunoblot of a disulfide-linked complex. (In western blotting, separated proteins are transferred to a membrane and probed.)

B1: recombinant Rad6 (enzyme)
chain: MSTPARRRLMRDFKRMKEDAPPGVSASPLPDNVMVWNAMIIGPADTPYEDGTFRLLLEFDEEYPNKPPHVKFLSEMFHPNVYANGEICLDILQNRWTPTYDVASILTSIQSLFNDPNPASPANVEAATLFKDHKSQYVKRVKETVEKSWEDDMDDMDDDDDDDDDDDDDEAD
B1: the binding result was “binds”.
